The source of these data is patent publication US20090081229A1 (published 2009).

Broadly, the Kd is the free concentration of one partner at which half of the binding sites on the other are occupied at equilibrium, for simple one-to-one binding. A low value points to a tighter complex.

For assay [1], the target named is T1, HVEM expressed on transfected 293 cells (Homo sapiens (Human), UniProt Q92956 39-283).
T1 construct: Transient transfection of human 293 cells with pRK5-HVEM; also called HVEM transfected cells; 293 cells expressing HVEM
T1 sequence: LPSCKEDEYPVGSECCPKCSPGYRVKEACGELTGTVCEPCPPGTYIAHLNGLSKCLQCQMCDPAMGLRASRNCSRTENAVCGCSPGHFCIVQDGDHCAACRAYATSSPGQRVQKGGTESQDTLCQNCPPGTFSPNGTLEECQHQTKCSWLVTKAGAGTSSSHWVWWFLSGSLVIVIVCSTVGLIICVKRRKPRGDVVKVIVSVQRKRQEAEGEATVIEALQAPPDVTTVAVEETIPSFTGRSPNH
Briefly: radioligand binding to transfected cells, Scatchard analysis. The procedure:
(§1) PRO87299 binds to HVEM in a cell based assay. In this experiment human 293 cells (ATCC CCL 1573) are grown to confluence in tissue culture plates in medium such as DMEM supplemented with fetal calf serum and optionally, nutrient components and/or antibiotics. About 10 μg pRK5-HVEM DNA is mixed with about 1 μg DNA encoding the VA RNA gene [Thimmappaya et al., Cell, 31:543 (1982)] and dissolved in 500 μl of 1 mM Tris-HCl, 0.1 mM EDTA, 0.227 M CaCl₂. To this mixture is added, dropwise, 500 μl of 50 mM HEPES (pH 7.35), 280 mM NaCl, 1.5 mM NaPO₄, and a precipitate is allowed to form for 10 minutes at 25° C. The precipitate is suspended and added to the 293 cells and allowed to settle for about four hours at 37° C. The culture medium is aspirated off and 2 ml of 20% glycerol in PBS is added for 30 seconds. The 293 cells are then washed with serum free medium, fresh medium is added and the cells are incubated for about 5 days. Alternatively, about 10 μg pRK5-HVEM DNA is mixed with LipofectAMINE™ (Gibco/BRL, Gaithersburg Md.) reagent and transfection performed by following the manufacturer's instructions. After the 293 cells were transfected with HVEM, they were incubated with 1125 radiolabled PRO87299(ECD)-Fc and binding allowed to occur. The radiolabled PRO87299 was then competed off with unlabled PRO87299(ECD)-Fc and the estimated number of total binding sites and the dissociation constant (Kd) were determined by Scatchard analysis. FIG. 17(A) is a Scatchard plot and FIG. 17(B) is a displacement plot showing PRO87299(ECD)-Fc binding to HVEM transiently transfected cells. […] Using this methodology, the affinity of HVEM/LIGHT/PRO87299 interactions were determined.

The target of assay [2] is T2, PRO87299(ECD)-Fc (human, UniProt Q7Z6A9 31-155).
T2 construct: Reduced apparent molecular weight 55 kDa; also called PRO87299-Fc; PRO87299(ECD)-Fc chimera; not shown: human Fc domain
T2 sequence: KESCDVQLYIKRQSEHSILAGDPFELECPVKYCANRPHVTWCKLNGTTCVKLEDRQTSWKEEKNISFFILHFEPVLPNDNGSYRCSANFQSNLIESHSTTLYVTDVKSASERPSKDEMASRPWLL
In words: SPR (Biacore), PRO87299-Fc amine coupled at ~9800 RU. The procedure:
PRO87299 interaction to HVEM is not blocked by LIGHT. PRO87299-Fc was amine coupled to a Biacore™ CM5 sensor chip at ˜9800 response units. LIGHT (purchased from Alexis™, Cat. #552-018-C010) was incubated at the increasing concentrations with 4 nM HVEM for 1 hr. […] LIGHT activity was confirmed by binding to immobilized HVEM-Fc on a CM5 sensor chip (data not shown). […] All binding sensograms were run in random order and in duplicate. Response units were recorded as the difference between baseline and 15 seconds before the end of a 2 min injection at 5 μl/min. Concentrations are based on molecular weights of 25 kDa for LIGHT monomer and 55 kDa for monomer HVEM.
(Surface plasmon resonance follows binding to a sensor surface in real time, without labels.)

Assay [3] deals with T2, PRO87299(ECD)-Fc. Briefly: SPR (Biacore), PRO87299(ECD)-Fc amine coupled at ~8000 RU. The procedure:
(§2) In this experiment, PRO87299(ECD)-Fc and CD28 family members hCTLA4-Fc, hPD-1-Fc, hICOS-Fc or hCD28-Fc were amine coupled to a Biacore™ CM5 chip at approximately 8000 response units. Each was then assayed for its ability to bind HVEM. An HVEM-Fc protein was made by ligating the nucleic acids encoding amino acids 1-199 of HVEM to a Fc, resulting in a HVEM-Fc fusion protein. This HVEM-Fc was cloned into an a expression vector which would produce the fusion protein when stably transfected into CHO cells. […] The result was 2 μg/ml of HVEM-Fc injected at 5 μl/min bound selectively to PRO87299 and not to the other member of the CD28 family members tested. The activity of each CD28 family member was confirmed positive by testing the binding response to their known ligands (data not shown) (CD28 family members and ligands were purchased from R&D systems).

A further assay deals with T3, hCD28-Fc (human, UniProt P10747 19-152).
T3 construct: Bought; not shown: Fc; not described
T3 sequence (P10747 19-152 limits assumed): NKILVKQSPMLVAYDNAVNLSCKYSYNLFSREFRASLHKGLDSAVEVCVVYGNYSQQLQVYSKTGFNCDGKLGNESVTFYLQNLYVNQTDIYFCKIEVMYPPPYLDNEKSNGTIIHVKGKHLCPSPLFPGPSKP
In words: SPR (Biacore), hCD28-Fc amine coupled at approximately 8000 RU. The procedure: as §2

In a further assay the target is T4, hICOS-Fc (human, UniProt Q9Y6W8 21-141).
T4 construct: Bought; not shown: Fc; not described
T4 sequence (looked up): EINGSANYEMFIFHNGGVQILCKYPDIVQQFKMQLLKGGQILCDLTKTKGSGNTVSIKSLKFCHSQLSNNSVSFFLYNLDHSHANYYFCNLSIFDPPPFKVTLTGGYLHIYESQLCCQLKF
In words: SPR (Biacore), hICOS-Fc amine coupled at approximately 8000 RU. The procedure: as §2

In the next assay the target is T5, hPD-1-Fc (human, UniProt Q15116 25-167).
T5 construct: Bought; not shown: Fc; not described
T5 sequence (Q15116 25-167 limits assumed): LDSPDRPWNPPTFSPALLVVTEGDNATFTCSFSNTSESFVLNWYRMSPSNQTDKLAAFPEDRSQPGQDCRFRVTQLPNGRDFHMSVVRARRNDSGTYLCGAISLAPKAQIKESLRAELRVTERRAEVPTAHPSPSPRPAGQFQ
In words: SPR (Biacore), hPD-1-Fc amine coupled at approximately 8000 RU. The procedure:
as §2

Another assay concerns the target T6, hCTLA4-Fc (human, UniProt P16410 37-162, limits assumed).
T6 construct: Bought; not shown: Fc; not described
T6 sequence (looked up): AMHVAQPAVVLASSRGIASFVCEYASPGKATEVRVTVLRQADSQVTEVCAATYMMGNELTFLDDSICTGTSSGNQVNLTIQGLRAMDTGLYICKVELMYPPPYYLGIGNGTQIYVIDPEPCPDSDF
Briefly: SPR (Biacore), hCTLA4-Fc amine coupled at approximately 8000 RU. The procedure:
as §2

For assay [4], the target named is T7, PRO87299 expressed on cells (human, UniProt Q7Z6A9 31-289).
T7 construct: also called PRO87299 transfected cells; 293 cells expressing PRO87299
In words: radioligand binding to transfected cells, Scatchard analysis. The procedure:
as §1

Assay [5] deals with T8, LIGHT expressed on transfected cells (Homo sapiens (Human), UniProt O43557 1-240).
T8 construct: also called LIGHT (expressed protein)
The assay is described as above. The procedure: as §1

For assay [6], the target named is T9, PRO87299/LIGHT (both expressed on the same transfected cells) (human, UniProt Q7Z6A9 31-289; O43557 1-240).
T9 construct: Two proteins co-expressed on cells as the target of I-125-HVEM-Fc; not a defined complex
Briefly: radioligand binding to cells expressing both PRO87299 and LIGHT, Scatchard analysis.

B1: LIGHT-FLAG (ligand)
chain: GEMVTRLPDGPAGSWEQLIQERRSHEVNPAAHLTGANSSLTGSGGPLLWETQLGLAFLRGLSYHDGALVVTKAGYYYIYSKVQLGGVGCPLGLASTITHGLYKRTPRYPEELELLVSQQSPCGRATSSSRVWWDSSFLGGVVHLEAGEEVVVRVLDERLVRLRDGTRSYFGAFMV
notes: Radio-iodinated; also called I-125-LIGHT-FLAG; not shown: FLAG tag
B1 showed a Kd in assay [1] of 2.5 nM.

B2: LIGHT (soluble, purchased from Alexis, Cat. #552-018-C010) (ligand)
chain: GEMVTRLPDGPAGSWEQLIQERRSHEVNPAAHLTGANSSLTGSGGPLLWETQLGLAFLRGLSYHDGALVVTKAGYYYIYSKVQLGGVGCPLGLASTITHGLYKRTPRYPEELELLVSQQSPCGRATSSSRVWWDSSFLGGVVHLEAGEEVVVRVLDERLVRLRDGTRSYFGAFMV
notes: Bought soluble protein; Monomer molecular weight 25 kDa used for concentrations
In the case of B2, in the assay with PRO87299(ECD)-Fc [2], the binding result is “no binding”.

B3: HVEM-Fc (Fc fusion)
chain: LPSCKEDEYPVGSECCPKCSPGYRVKEACGELTGTVCEPCPPGTYIAHLNGLSKCLQCQMCDPAMGLRASRNCSRTENAVCGCSPGHFCIVQDGDHCAACRAYATSSPGQRVQKGGTESQDTLCQNCPPGTFSPNGTLEECQHQTKCSWLVTKAGAGTSSS
notes: Produced in stably transfected CHO cells, Protein A purified; also called HVEM-Fc fusion protein; I-125-HVEM-Fc; not shown: Fc
For B3, the binding result in the assay with PRO87299(ECD)-Fc [3] is reported as “binds”; with hCD28-Fc it was “no binding (tested: 2 µg/ml)”; in the assay with hICOS-Fc, “no binding (tested: 2 µg/ml)”; with hPD-1-Fc, “no binding (tested: 2 µg/ml)”; with hCTLA4-Fc it was “no binding (tested: 2 µg/ml)”. Besides, the Kd worked out at 5.5 nM in assay [4], 7 nM in [5] and 0.5 nM in [6].
